In patent US20210230280A1 (EXIRIS S R L, published 2021):
Substitutions are numbered along the chain they refer to. Several values for one entry are separate records, joined by “and”; a condition that tells them apart may be missing. Equal entries are not always repeated.

T1: murine FGFR4 (mouse, UniProt Q03142 17-799)
T1 construct: whole, on cells; full-length, on transfected BOSC23 cells; also called murine receptor; murine FL FGFR4
T1 sequence (looked up): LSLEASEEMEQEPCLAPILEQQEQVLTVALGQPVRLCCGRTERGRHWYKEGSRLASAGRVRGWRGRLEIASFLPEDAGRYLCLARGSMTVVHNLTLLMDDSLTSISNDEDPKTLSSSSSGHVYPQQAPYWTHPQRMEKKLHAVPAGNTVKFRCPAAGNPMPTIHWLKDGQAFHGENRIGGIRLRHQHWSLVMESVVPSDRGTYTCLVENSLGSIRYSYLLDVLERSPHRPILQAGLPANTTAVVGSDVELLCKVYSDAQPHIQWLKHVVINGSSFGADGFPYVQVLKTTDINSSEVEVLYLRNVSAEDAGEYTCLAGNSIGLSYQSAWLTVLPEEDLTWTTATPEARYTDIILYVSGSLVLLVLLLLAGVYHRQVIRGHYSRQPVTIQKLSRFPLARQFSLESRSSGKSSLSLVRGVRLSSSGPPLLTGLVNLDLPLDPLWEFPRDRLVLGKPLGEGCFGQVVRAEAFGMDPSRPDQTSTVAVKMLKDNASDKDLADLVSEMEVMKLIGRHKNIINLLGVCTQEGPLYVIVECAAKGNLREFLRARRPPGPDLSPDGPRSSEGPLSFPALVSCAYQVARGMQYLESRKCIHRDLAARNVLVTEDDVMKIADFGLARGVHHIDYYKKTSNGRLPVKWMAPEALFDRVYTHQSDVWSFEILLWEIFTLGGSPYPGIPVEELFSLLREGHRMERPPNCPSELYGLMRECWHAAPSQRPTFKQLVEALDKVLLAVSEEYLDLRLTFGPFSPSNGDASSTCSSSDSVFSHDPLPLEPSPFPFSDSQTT

T2: human chimeric receptor FGFR3-Fc (R&D Systems) (human, UniProt P22607 23-375)
T2 construct: extracellular domain; not shown: human Fc
T2 sequence (looked up): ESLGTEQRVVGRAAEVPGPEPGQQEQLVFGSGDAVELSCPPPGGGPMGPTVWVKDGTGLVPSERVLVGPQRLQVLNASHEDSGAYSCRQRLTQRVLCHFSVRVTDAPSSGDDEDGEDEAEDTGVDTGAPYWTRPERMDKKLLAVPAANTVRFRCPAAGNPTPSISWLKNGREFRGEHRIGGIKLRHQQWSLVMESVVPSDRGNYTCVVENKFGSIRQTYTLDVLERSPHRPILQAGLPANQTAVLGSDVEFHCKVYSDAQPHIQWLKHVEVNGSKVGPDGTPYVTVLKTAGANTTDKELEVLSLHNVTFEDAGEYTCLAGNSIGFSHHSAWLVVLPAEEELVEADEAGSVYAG

T3: human chimeric receptor FGFR4-Fc (R&D Systems) (human, UniProt P22455 22-369)
T3 construct: extracellular domain; bought; also called hFGFR4-Fc; not shown: human IgG Fc
T3 sequence (looked up): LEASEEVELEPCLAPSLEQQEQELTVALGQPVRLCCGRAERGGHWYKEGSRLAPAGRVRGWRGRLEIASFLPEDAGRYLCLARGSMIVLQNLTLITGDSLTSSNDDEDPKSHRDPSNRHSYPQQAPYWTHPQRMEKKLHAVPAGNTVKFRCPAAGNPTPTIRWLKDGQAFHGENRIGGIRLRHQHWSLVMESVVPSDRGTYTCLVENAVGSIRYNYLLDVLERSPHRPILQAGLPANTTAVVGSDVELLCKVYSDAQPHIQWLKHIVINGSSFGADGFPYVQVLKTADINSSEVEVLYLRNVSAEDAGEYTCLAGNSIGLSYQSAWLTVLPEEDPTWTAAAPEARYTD

B1: ch3B6 (antibody, human IgG1, V domains shown)
VH: EVQLVESGGGLVQPGRSLKLSCAASGFTFSNYYMAWVRQAPKKGLEWVATINPSGTRTYYPDSVKGRFTLSRDSAKSSLYLQMNSLKSEDTATFYCARLYNNYAFDYWGQGVMVTVSS
VL: DVQMTQSPALAVSPGERVSISCRASESVSTLMHWYQQKPGQQPKLLIYGTSNLESGVPARFSGSGSGTDFTLNIDPVEADDTATYFCQQSWNDPPTFGGGTKLELK
notes: human-rat chimeric antibody, human IgG1 constant regions and human kappa constant region; also called chimeric 3B6
B2: Hu3B6a (antibody, human IgG1, V domains shown)
VH: EVQLVESGGGLVQPGGSLRLSCAASGFTFSNYYMSWVRQAPGKGLEWVATINPSGTRTYYPDSVKGRFTISRDNAKNSLYLQMNSLRAEDTAVYYCARLYNNYAFDYWGQGTLVTVSS
VL: DIQMTQSPSSLSASVGDRVTITCRASESISTLLHWYQQKPGKAPKLLIYGTSNLESGVPSRFSGSGSGTDFTLTISSLQPEDFATYYCQQSWNDPPTFGGGTKVEIK
B3: Hu3B6b (antibody, human IgG1, V domains shown)
VH: B2 VH with T50N
VL: B2 VL
B4: Hu3B6c (antibody, human IgG1, V domains shown)
VH: B2 VH with N74S, N77S
VL: B2 VL
B5: Hu3B6d (antibody, human IgG1, V domains shown)
VH: B2 VH
VL: B2 VL with I29V, L33M
B6: Hu3B6e (antibody, human IgG1, V domains shown)
VH: B2 VH with T50N
VL: B2 VL with I29V, L33M
B7: Hu3B6f (antibody, human IgG1, V domains shown)
VH: B2 VH with N74S, N77S
VL: B2 VL with I29V, L33M

Experiments:
murine FGFR4 = molecular target: T1, murine FGFR4; test: told with the epitope alignment
[1] = molecular target: T2, human chimeric receptor FGFR3-Fc (R&D …); test: solid phase receptor binding assay
[2] = molecular target: T3, human chimeric receptor FGFR4-Fc (R&D …); test: competition ELISA, FGF19 binding to FGFR4-Fc

Row | Binder | binding result (murine FGFR4) | binding result [1] | IC50 [2]
1 | B1 | binds | no binding (tested: 9 ug/mL) | 
2 | B2 |  |  | 0.13 µg/mL and 0.87 nM
3 | B3 |  |  | 0.4 µg/mL and 2.7 nM
4 | B4 |  |  | 0.07 µg/mL and 0.47 nM
5 | B5 |  |  | 0.03 µg/mL and 0.2 nM
6 | B6 |  |  | 0.16 µg/mL and 1 nM
7 | B7 |  |  | 0.09 µg/mL and 0.6 nM
